Where “and” joins values, the source holds several entries; their conditions need not be identical. Equal entries are not always repeated.
T1: tOmpA, the 8-stranded transmembrane domain of OmpA (UniProt P0A910 22-197)
T1 sequence: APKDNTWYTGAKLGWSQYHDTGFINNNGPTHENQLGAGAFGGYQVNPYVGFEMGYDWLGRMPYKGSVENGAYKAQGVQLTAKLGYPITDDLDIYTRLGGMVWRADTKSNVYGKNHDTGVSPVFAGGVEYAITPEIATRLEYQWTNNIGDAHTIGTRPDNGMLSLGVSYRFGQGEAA

T2: PagP (UniProt P37001 26-186)
T2 sequence (looked up): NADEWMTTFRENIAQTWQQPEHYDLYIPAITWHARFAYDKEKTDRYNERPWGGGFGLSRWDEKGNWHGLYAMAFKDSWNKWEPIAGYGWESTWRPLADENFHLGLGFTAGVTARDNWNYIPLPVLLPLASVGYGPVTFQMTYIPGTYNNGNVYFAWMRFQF

T3: OmpT (E. coli, UniProt P09169 21-317)
T3 sequence (looked up): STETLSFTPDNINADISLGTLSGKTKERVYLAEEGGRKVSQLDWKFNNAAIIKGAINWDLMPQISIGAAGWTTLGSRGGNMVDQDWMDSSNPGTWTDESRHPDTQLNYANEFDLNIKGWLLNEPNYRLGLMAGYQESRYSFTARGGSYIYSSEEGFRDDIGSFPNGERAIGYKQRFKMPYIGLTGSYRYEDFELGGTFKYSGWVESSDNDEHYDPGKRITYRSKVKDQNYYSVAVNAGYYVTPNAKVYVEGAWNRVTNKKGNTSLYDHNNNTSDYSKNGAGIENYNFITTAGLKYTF

T4: OmpF (UniProt P02931 23-362)
T4 sequence (looked up): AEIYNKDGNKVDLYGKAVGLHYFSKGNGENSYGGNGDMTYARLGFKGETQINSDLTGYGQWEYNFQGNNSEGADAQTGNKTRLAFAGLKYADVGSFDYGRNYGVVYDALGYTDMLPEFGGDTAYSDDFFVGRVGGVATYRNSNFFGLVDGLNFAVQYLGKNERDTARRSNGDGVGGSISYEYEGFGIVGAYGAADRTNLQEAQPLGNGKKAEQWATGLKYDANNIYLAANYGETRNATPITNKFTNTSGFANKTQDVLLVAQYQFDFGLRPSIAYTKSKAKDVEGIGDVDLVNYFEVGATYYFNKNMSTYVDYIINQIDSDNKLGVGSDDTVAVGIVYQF

T5: full-length OmpA (UniProt P0A910 22-346)
T5 sequence (looked up): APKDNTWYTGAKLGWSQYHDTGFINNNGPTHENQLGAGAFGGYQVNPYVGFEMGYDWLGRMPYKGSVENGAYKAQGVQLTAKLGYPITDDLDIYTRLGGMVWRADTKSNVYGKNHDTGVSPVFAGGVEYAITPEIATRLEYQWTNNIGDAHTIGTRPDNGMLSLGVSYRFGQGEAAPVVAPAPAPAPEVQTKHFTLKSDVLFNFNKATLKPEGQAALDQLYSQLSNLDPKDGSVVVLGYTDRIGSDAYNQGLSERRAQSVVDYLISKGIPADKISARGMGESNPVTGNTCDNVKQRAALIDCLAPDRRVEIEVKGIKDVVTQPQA

B1: Skp (natural protein, Escherichia coli, UniProt P0AEU7 21-161, looked up)
chain: ADKIAIVNMGSLFQQVAQKTGVSNTLENEFKGRASELQRMETDLQAKMKKLQSMKAGSDRTKLEKDVMAQRQTFAQKAQAFEQDRARRSNEERGKLVTRIQTAVKSVANSQDIDLVVDANAVAYNSSDVKDITADVLKQVK
B2: His-tagged Skp (natural protein, Escherichia coli)
chain: B1 chain

Tests used:
[1] = biological target: T1, tOmpA, the 8-stranded transmembrane …; experiment: native MS
[2] = biological target: T2, PagP; experiment: native MS
[3] = biological target: T3, OmpT; experiment: native MS
[4] = biological target: T4, OmpF; experiment: native MS
[5] = biological target: tBamA, the 16-stranded transmembrane domain of the BamA OMP insertase (UniProt P0A940 425-810); experiment: native MS
[6] = biological target: the molecule itself; experiment: native MS
[7] = biological target: T5, full-length OmpA; experiment: cross-linking
[8] = biological target: full-length BamA (UniProt P0A940 21-810); experiment: cross-linking

Binder	stoichiometry N [1]	stoichiometry N [2]	stoichiometry N [3]	stoichiometry N [4]	stoichiometry N [5]	binding result [6]	stoichiometry N [7]	stoichiometry N [8]
B1	1 Skp (trimer) per OMP	1 Skp (trimer) per OMP	≤ 2 Skp (trimer) per OMP and 1 Skp (trimer) per OMP	1 Skp (trimer) per OMP and ≤ 2 Skp (trimer) per OMP	1 Skp (trimer) per OMP and ≤ 2 Skp (trimer) per OMP	binds	–	–
B2	–	–	–	–	–	–	1 Skp (trimer) per OMP	2 Skp (trimer) per OMP

— publication PMC5018216 (Nature structural & molecular biology, 2016)
